B1: HDV Ribozyme (parent)
chain: GGCCGGCAUGGUCCCAGCCUCCUCGCUGGCGCCGGCUGGGCAACAUUCCGAGGGGACCGUCCCCUCGGUAAUGGCGAAUGGGACCCA

Variants of: B1
Assay: self-cleavage, relative activity (ratio to wild type); higher = more cleavage; co-transcriptional

Compared with U23G G52U, C24U A77G is lower in self-cleavage: 0.585 for the first, 0.53 for the second.

First: C24U A77U
Second: C24U A87C
The self-cleavage of the first is lower: 0.0791 for the first, 0.739 for the second.

Compared with C24U U79A, G25U G68A is lower in self-cleavage: 0.208 for the first, 0.0923 for the second.

Going from U23G C24G to U23C G34C, the self-cleavage rises from 0.16 to 0.172.

Compared with G25U A87C, G25U A87U is higher in self-cleavage: 0.0755 for the first, 0.109 for the second.

First: G25C C36A
Second: G25C C36G
The self-cleavage of the first is higher: 0.128 for the first, 0.0519 for the second.

First: U23C U37C
Second: U23C U37A
The self-cleavage of the first is higher: 1.15 for the first, 0.0536 for the second.

First: C24A C30A
Second: U23G A83C
The self-cleavage of the first is higher: 0.237 for the first, 0 for the second.

Compared with U23G A83U, G25A U65C is higher in self-cleavage: 0.107 for the first, 0.208 for the second.

Compared with U23C G54C, C24G G82U is lower in self-cleavage: 0.673 for the first, 0.0302 for the second.

Compared with C24G G35C, C24G G35A is higher in self-cleavage: 0.0332 for the first, 0.124 for the second.

Going from G25C C41G to C24U A70G, the self-cleavage rises from 0 to 0.706.

Compared with C24U A70C, U23G U46G is lower in self-cleavage: 0.573 for the first, 0.356 for the second.

Compared with C24G G40U, C24U G50C is higher in self-cleavage: 0.17 for the first, 0.554 for the second.

Compared with C24U G50A, G25A A71G is lower in self-cleavage: 0.726 for the first, 0.0594 for the second.

Compared with C24A U27A, C24A U27C is lower in self-cleavage: 0.639 for the first, 0.0791 for the second.

First: C24A G31C
Second: G25C A70G
The self-cleavage of the first is higher: 0.0583 for the first, 0.0573 for the second.

Compared with G25A G59U, G25A G59A is lower in self-cleavage: 0.264 for the first, 0.189 for the second.

Going from C24G G52C to C24A C32A, the self-cleavage falls from 0.172 to 0.106.

Going from U23G G68U to U23G G68C, the self-cleavage falls from 0.969 to 0.482.

Going from C24U C75A to C24A G68U, the self-cleavage rises from 0.0639 to 0.776.

First: G25A G38U
Second: G25A G38C
The self-cleavage of the first is lower: 0.0744 for the first, 0.0791 for the second.

First: C24U C36G
Second: C24U C36U
The self-cleavage of the first is lower: 0.141 for the first, 0.402 for the second.

Compared with G25C A45G, G25U A45U is higher in self-cleavage: 0.104 for the first, 0.172 for the second.

Going from C24G C26A to G25A G52C, the self-cleavage falls from 0.886 to 0.174.

First: G25A G52A
Second: C24G G68A
The self-cleavage of the first is lower: 0.0863 for the first, 0.22 for the second.

Going from G25C A71G to C24G A78U, the self-cleavage falls from 0.131 to 0.

Compared with C24G C84A, C24U A78C is higher in self-cleavage: 0.123 for the first, 0.196 for the second.

Going from C24A A51C to U23G C66G, the self-cleavage falls from 0.516 to 0.32.

Going from G25C C30A to G25C G81U, the self-cleavage rises from 0.0511 to 0.151.

First: G25C G81C
Second: G25A C32A
The self-cleavage of the first is lower: 0.0449 for the first, 0.0848 for the second.

Compared with G25U G31A, U23G C33U is higher in self-cleavage: 0.157 for the first, 0.569 for the second.

Going from G25C C63G to U23C G82C, the self-cleavage rises from 0.0875 to 0.465.

First: G25C U47A
Second: C24G G55A
The self-cleavage of the first is lower: 0.0639 for the first, 0.166 for the second.

Compared with C24U G81U, G25U C62A is lower in self-cleavage: 0.169 for the first, 0.138 for the second.

Going from G25C C86G to G25U A77U, the self-cleavage falls from 0.332 to 0.0923.

First: U23C G40U
Second: U23G G28A
The self-cleavage of the first is higher: 0.587 for the first, 0.0941 for the second.

Going from U23G G28U to C24U A56C, the self-cleavage rises from 0.0326 to 0.973.

Compared with C24U A56U, C24A G35C is lower in self-cleavage: 0.401 for the first, 0.0692 for the second.

First: C24G C57U
Second: U23G C63U
The self-cleavage of the first is lower: 0.14 for the first, 0.469 for the second.

Going from U23C G81A to U23G U27G, the self-cleavage falls from 0.591 to 0.529.

First: C24G C64A
Second: U23C G68A
The self-cleavage of the first is lower: 0.117 for the first, 0.87 for the second.

First: U23C G68U
Second: C24A G80U
The self-cleavage of the first is higher: 0.897 for the first, 0.198 for the second.

First: C24A C57G
Second: G25A A87U
The self-cleavage of the first is higher: 0.869 for the first, 0.277 for the second.

First: G25A A87G
Second: C24A G55A
The self-cleavage of the first is lower: 0.163 for the first, 0.684 for the second.

First: C24G C85A
Second: C24G C85U
The self-cleavage of the first is higher: 0.141 for the first, 0.107 for the second.

First: C24A G54C
Second: C24A G54A
The self-cleavage of the first is lower: 0.741 for the first, 0.774 for the second.

Going from G25U C75U to G25A C36A, the self-cleavage falls from 0.162 to 0.0554.

First: G25A C36G
Second: G25C C84G
The self-cleavage of the first is lower: 0.0997 for the first, 0.158 for the second.

Going from G25C C84U to G25C C48G, the self-cleavage rises from 0.0314 to 0.133.

Going from G25C C48U to G25U A51U, the self-cleavage falls from 0.26 to 0.237.

First: G25U C66U
Second: G25U C66A
The self-cleavage of the first is lower: 0.151 for the first, 0.172 for the second.

Going from G25C G35A to C24U C58U, the self-cleavage rises from 0.0346 to 0.772.

Going from C24U C58A to C24U C58G, the self-cleavage rises from 0.789 to 0.811.

Going from C24G A70G to C24U G53C, the self-cleavage rises from 0.0594 to 0.848.

Going from G25C C33A to G25C C33U, the self-cleavage rises from 0 to 0.0773.

Going from G25C C58G to C24A C49U, the self-cleavage rises from 0.161 to 0.623.

First: G25C C66U
Second: U23G G54A
The self-cleavage of the first is lower: 0.0563 for the first, 0.928 for the second.

Compared with U23G G54U, G25A A77G is lower in self-cleavage: 0.9 for the first, 0 for the second.

Compared with G25A A77U, G25C C57A is higher in self-cleavage: 0 for the first, 0.166 for the second.

Going from G25A C63A to G25U G29U, the self-cleavage falls from 0.125 to 0.12.

Compared with C24A, C24U is lower in self-cleavage: 0.767 for the first, 0.73 for the second.

Going from C24G to C24U G35U, the self-cleavage rises from 0.13 to 0.131.

First: C24U G35C
Second: C24U G35A
The self-cleavage of the first is lower: 0.0339 for the first, 0.372 for the second.

First: U23G A70C
Second: G25C G29C
The self-cleavage of the first is higher: 0.571 for the first, 0.0489 for the second.

Going from G25U G53A to C24G G74A, the self-cleavage falls from 0.19 to 0.124.

Compared with C24G G74C, G25C G31U is higher in self-cleavage: 0.109 for the first, 0.214 for the second.

Going from G25U A42G to G25A U79C, the self-cleavage falls from 0.119 to 0.0583.

First: G25A U79A
Second: G25U G35C
The self-cleavage of the first is lower: 0.0437 for the first, 0.0707 for the second.

Compared with C24U C48G, C24A C64A is higher in self-cleavage: 0.627 for the first, 0.803 for the second.

Compared with G25U G67A, G25C G53C is higher in self-cleavage: 0.227 for the first, 0.356 for the second.

First: G25C G53U
Second: G25C G53A
The self-cleavage of the first is higher: 0.193 for the first, 0 for the second.

Going from U23C G76U to U23C G76A, the self-cleavage rises from 1.14 to 1.22.

First: C24U G38A
Second: C24U U65A
The self-cleavage of the first is lower: 0.0863 for the first, 0.469 for the second.

Going from C24A G74C to C24A G28C, the self-cleavage rises from 0.0326 to 0.0773.

Compared with U23G U60C, G25C G73A is lower in self-cleavage: 0.831 for the first, 0.116 for the second.

First: C24G C61G
Second: C24G C61A
The self-cleavage of the first is lower: 0.0264 for the first, 0.112 for the second.

First: C24G C62A
Second: G25C C32A
The self-cleavage of the first is lower: 0.0272 for the first, 0.148 for the second.

First: C24A G53A
Second: C24A G53C
The self-cleavage of the first is higher: 0.893 for the first, 0.785 for the second.

First: C24U U72A
Second: C24U G67C
The self-cleavage of the first is lower: 0.404 for the first, 0.78 for the second.

Going from C24G C48G to C24G G25A, the self-cleavage rises from 0.0941 to 0.0959.

Compared with C24G G25C, G25C G55A is higher in self-cleavage: 0.145 for the first, 0.158 for the second.

First: C24G C30G
Second: U23C G35U
The self-cleavage of the first is lower: 0.0875 for the first, 0.354 for the second.

With C24U C44U the self-cleavage was 0.434.
